Results taken from patent US20240131065A1 (CRAGE MEDICAL, published 2024).

Molecular target: T1, CD94 monomeric Fc fusion protein (human, UniProt P0DOX5 223-449 = IgG part)
T1 construct: also called huFc(hole)-CD94-ECD and huFc(knob); human CD94 monomeric Fc fusion protein antigen
Assay: phage display panning on coated CD94 monomeric Fc fusion protein, then ELISA
Experimental: Briefly, immunotubes were coated with 10 μg/ml of the antigene CD94 monomeric Fc fusion protein prepared above, blocked with phosphate buffered saline (MPBS) comprising 3% […] for 2 hours at room temperature. In order to screen for antibodies that specifically bind to CD94, the phage library was added to the immunotubes coated with the antigen CD94 monomeric Fc fusion protein and bound for 1.5 hours. The non-specific phages were then washed away, and the bound phages were eluted with 100 mM triethylamine and infected E. coli TG1 in logarithmic growth phase. Expanded culture of the eluted phages, and the expanded phage library was purified using PEG/NaCl precipitation for the next round of screening.
A total of three rounds of screening were performed, and 9 positive clones that specifically bind to CD94 were obtained after three rounds of screening. These clones were subsequently subjected to ELISA and sequencing analysis, two unique sequences were selected, 2B1 and 2F1, respectively. The ELISA results are shown in FIG. 2 (NA is the blank control group).

B1: 2B1 (Fab, V domains shown)
VH: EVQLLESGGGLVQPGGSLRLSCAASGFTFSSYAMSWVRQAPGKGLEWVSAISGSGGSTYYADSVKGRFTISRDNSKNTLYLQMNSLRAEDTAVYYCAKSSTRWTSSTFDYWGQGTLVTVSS
VL: DIQMTQSPSTLSASVGDRVTITCRASQSISSWLAWYQQKPGKAPKLLIYDASSLESGVPSRFSGSGSGTEFTLTISSLQPDDFATYYCQQYYFYPYTFGQGTKVEIKR
notes: Clone from a fully human Fab phage display library; also called antibody 2B1; CD94-specific antibody
binding result: binds
